Measurements from patent US20260209386A1 (MYTHIC THERAPEUTICS, published 2026).

T1: Human PTK7 Protein, His Tag, Acro Biosystems (human, UniProt Q13308 31-704)
T1 construct: Bought protein; also called CCK4; not shown: His tag
T1 sequence: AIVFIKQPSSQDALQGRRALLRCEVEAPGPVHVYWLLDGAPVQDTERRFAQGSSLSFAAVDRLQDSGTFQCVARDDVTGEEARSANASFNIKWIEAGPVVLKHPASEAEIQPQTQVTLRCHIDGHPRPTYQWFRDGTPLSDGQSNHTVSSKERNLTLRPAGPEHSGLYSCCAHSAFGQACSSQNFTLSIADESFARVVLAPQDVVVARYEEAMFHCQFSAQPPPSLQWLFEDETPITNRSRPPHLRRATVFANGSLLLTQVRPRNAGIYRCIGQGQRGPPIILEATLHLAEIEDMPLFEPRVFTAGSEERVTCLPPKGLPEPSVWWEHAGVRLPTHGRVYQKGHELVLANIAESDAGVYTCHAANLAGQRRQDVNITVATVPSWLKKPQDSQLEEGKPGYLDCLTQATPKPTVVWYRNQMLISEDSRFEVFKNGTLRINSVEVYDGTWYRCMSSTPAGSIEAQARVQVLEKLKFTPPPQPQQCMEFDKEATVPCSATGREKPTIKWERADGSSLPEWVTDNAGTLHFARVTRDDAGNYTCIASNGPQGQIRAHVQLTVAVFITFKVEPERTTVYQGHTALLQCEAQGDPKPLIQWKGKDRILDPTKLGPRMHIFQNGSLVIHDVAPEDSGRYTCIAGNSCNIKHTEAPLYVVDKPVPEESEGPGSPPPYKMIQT

B1: MYT11222 (antibody, V domains shown)
VH: EVQLVESGGGLVQPGGSLRLSCTASGIDLSSYVMGWVRQAPGKGLEWVGYIYGGGGTYYATWARGRFTISRDTSKNTVYLQMNSLRAEDTAVYFCARAAADFYFNLWGQGTLVTVSS
VL: EIVMTQSPSTLSASVGDRVIITCQAHQSISSYLAWYQQKPGKAPKLLIYDISDLASGVPSRFSGSGSGAEFTLTISSLQPDDFATYYCQSYYWISNSGAAFGQGTKLTVL
notes: LC variant of MYT9460, sub at LCV pos 26 (L1 03)
B2: MYT11245 (antibody, V domains shown)
VH: EVQLVESGGGLVQPGGSLRLSCTASGIDLSSYVMGWVRQAPGKGLEWVGYIYGGGGTYYATWARGRFTISRDTSKNTVYLQMNSLRAEDTAVYFCARAAADFYFNLWGQGTLVTVSS
VL: EIVMTQSPSTLSASVGDRVIITCQASQSISSYLAWYQQKPGKAPKLLIYDISDLASGVPSRFSGSGSGAEFTLTISSLQPDDFATYYCQSYYWISHSGAAFGQGTKLTVL
notes: LC variant of MYT9460, sub at LCV pos 96 (L3 08)
B3: MYT11253 (antibody, V domains shown)
VH: EVQLVESGGGLVQPGGSLRLSCTASGIDLSSYVMGWVRQAPGKGLEWVGYIYGGGGTYYATWARGRFTISRDTSKNTVYLQMNSLRAEDTAVYFCARAAADFYFNLWGQGTLVTVSS
VL: EIVMTQSPSTLSASVGDRVIITCQASQSISSYLAWYQQKPGKAPKLLIYDISDLASGVPSRFSGSGSGAEFTLTISSLQPDDFATYYCQSYYWISASGAAFGQGTKLTVL
notes: LC variant of MYT9460, Ala sub at LCV pos 96 (L3 08)
B4: MYT11238 (antibody, V domains shown)
VH: EVQLVESGGGLVQPGGSLRLSCTASGIDLSSYVMGWVRQAPGKGLEWVGYIYGGGGTYYATWARGRFTISRDTSKNTVYLQMNSLRAEDTAVYFCARAAADFYFNLWGQGTLVTVSS
VL: EIVMTQSPSTLSASVGDRVIITCQASQSISSYLAWYQQKPGKAPKLLIYDISDLASGVPSRFSGSGSGAEFTLTISSLQPDDFATYYCHSYYWISNSGAAFGQGTKLTVL
notes: LC variant of MYT9460, sub at LCV pos 89 (L3 01)
B5: MYT11224 (antibody, V domains shown)
VH: EVQLVESGGGLVQPGGSLRLSCTASGIDLSSYVMGWVRQAPGKGLEWVGYIYGGGGTYYATWARGRFTISRDTSKNTVYLQMNSLRAEDTAVYFCARAAADFYFNLWGQGTLVTVSS
VL: EIVMTQSPSTLSASVGDRVIITCQASQHISSYLAWYQQKPGKAPKLLIYDISDLASGVPSRFSGSGSGAEFTLTISSLQPDDFATYYCQSYYWISNSGAAFGQGTKLTVL
notes: LC variant of MYT9460, sub at LCV pos 28 (L1 05)
B6: MYT11248 (antibody, V domains shown)
VH: EVQLVESGGGLVQPGGSLRLSCTASGIDLSSYVMGWVRQAPGKGLEWVGYIYGGGGTYYATWARGRFTISRDTSKNTVYLQMNSLRAEDTAVYFCARAAADFYFNLWGQGTLVTVSS
VL: EIVMTQSPSTLSASVGDRVIITCQASQSISSYLAWYQQKPGKAPKLLIYDISDLASGVPSRFSGSGSGAEFTLTISSLQPDDFATYYCQSYYWISNSGHAFGQGTKLTVL
notes: LC variant of MYT9460, sub at LCV pos 99 (L3 11)
B7: MYT11246 (antibody, V domains shown)
VH: EVQLVESGGGLVQPGGSLRLSCTASGIDLSSYVMGWVRQAPGKGLEWVGYIYGGGGTYYATWARGRFTISRDTSKNTVYLQMNSLRAEDTAVYFCARAAADFYFNLWGQGTLVTVSS
VL: EIVMTQSPSTLSASVGDRVIITCQASQSISSYLAWYQQKPGKAPKLLIYDISDLASGVPSRFSGSGSGAEFTLTISSLQPDDFATYYCQSYYWISNHGAAFGQGTKLTVL
notes: LC variant of MYT9460, sub at LCV pos 97 (L3 09)
B8: MYT11247 (antibody, V domains shown)
VH: EVQLVESGGGLVQPGGSLRLSCTASGIDLSSYVMGWVRQAPGKGLEWVGYIYGGGGTYYATWARGRFTISRDTSKNTVYLQMNSLRAEDTAVYFCARAAADFYFNLWGQGTLVTVSS
VL: EIVMTQSPSTLSASVGDRVIITCQASQSISSYLAWYQQKPGKAPKLLIYDISDLASGVPSRFSGSGSGAEFTLTISSLQPDDFATYYCQSYYWISNSHAAFGQGTKLTVL
notes: LC variant of MYT9460, sub at LCV pos 98 (L3 10)
B9: MYT11225 (antibody, V domains shown)
VH: EVQLVESGGGLVQPGGSLRLSCTASGIDLSSYVMGWVRQAPGKGLEWVGYIYGGGGTYYATWARGRFTISRDTSKNTVYLQMNSLRAEDTAVYFCARAAADFYFNLWGQGTLVTVSS
VL: EIVMTQSPSTLSASVGDRVIITCQASQSHSSYLAWYQQKPGKAPKLLIYDISDLASGVPSRFSGSGSGAEFTLTISSLQPDDFATYYCQSYYWISNSGAAFGQGTKLTVL
notes: LC variant of MYT9460, sub at LCV pos 29 (L1 06)
B10: MYT11240 (antibody, V domains shown)
VH: EVQLVESGGGLVQPGGSLRLSCTASGIDLSSYVMGWVRQAPGKGLEWVGYIYGGGGTYYATWARGRFTISRDTSKNTVYLQMNSLRAEDTAVYFCARAAADFYFNLWGQGTLVTVSS
VL: EIVMTQSPSTLSASVGDRVIITCQASQSISSYLAWYQQKPGKAPKLLIYDISDLASGVPSRFSGSGSGAEFTLTISSLQPDDFATYYCQSHYWISNSGAAFGQGTKLTVL
notes: LC variant of MYT9460, sub at LCV pos 91 (L3 03)

Molecular target: T1, Human PTK7 Protein, His Tag, Acro …
Assay: BLI (Octet), antibody on anti-human Fc sensor, 50 nM PTK7, dissociation at pH 7.4 or 5.4; 1 = pH dependent binding relative to parent

binding result	Binder
binds	B1
binds	B2
binds	B3
binds	B4
binds	B5
binds	B6
binds	B7
binds	B8
binds	B9
binds	B10
